Results on 1 substance are retold here after patent publication US20260022155A1.

The assay has as its target HVEM expressed on cell lines (KTPloCD86A2 HVEM; K562CD19/HVEM) (UniProt Q92956). In words: cell-based or functional assay. Conditions: scale: times higher than CD19-28z electroporated T cells.
Sequence of UniProt Q92956 (Q92956 39-283 limits assumed): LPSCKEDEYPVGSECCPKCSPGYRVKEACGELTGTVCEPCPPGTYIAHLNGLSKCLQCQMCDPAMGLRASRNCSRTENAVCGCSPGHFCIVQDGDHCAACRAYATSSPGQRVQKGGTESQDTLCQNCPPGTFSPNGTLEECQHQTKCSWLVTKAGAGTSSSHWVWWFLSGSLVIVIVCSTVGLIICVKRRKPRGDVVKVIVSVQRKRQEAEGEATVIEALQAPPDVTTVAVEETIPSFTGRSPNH

Substance BTLA-CD28 CCR (receptor) came in with an IL-2 production (ELISA) of T cells co-electroporated with CD19z and BTLA-CD28 CCR of 4.
